Substrate in this data set: Nc1c(O)cccc1C(=O)O
In words: purified protein. The settings on record: 1 mM PR-PPi, 45 mM imidazole HCl pH 7.4, 30 °C, 3-HAA 0-0.5 mM. It counts as biochemical, Physcomitrium patens.

B1: PpPAT1 (Physcomitrium patens) (protein)
chain: MAAALASQRTWLPSSSVGPFRGSFATAPASSPRVLGVPRKFAVESGKWEVLVRNVRAQSSTVTVPARTLSIPQVLEQLIQGTNLTQAQTEEVMETLLADANPAIIGAFLALLRAKGETLDEVTGLASAMLSRAIPVRTVPGSLDIVGTGGDGANTVNISTGSCILAAACGAKVAKHGSRSSSSACGSADVLETLGVAIDLGPEGVAKCVEDVGVGFMFAPTYHPAMKVVAPVRRSLKIKTAFNILGPMLNPSRAPHSIVGVYHDNLVEKMAKILQHFGTKRTLVVHCHGLDEMSPLGGGRVLEVTQDKIESFVFDPLNFGIPRCTLEDLKGGNADFNAKSLRNVFAGEPGPIADSLILNAAAGIMACGLVKDLGEGVSLARDVLRSGRANTVLDNWISLSQKLKAEEVSE
notes: codon-optimized gene in pET28a, His-tagged, E. coli BL21 (DE3), Ni-NTA
Broadly, the Km is the concentration of substrate that gives half-maximal velocity. What is called kcat is the maximal rate divided by the concentration of active sites. The kcat/Km is the second-order rate constant that governs catalysis at low substrate concentration. For B1, the Michaelis constant (Km) was found to be 99.71 ± 11.2 µM, the catalytic constant (kcat) turned out to be 0.0533 ± 0.00167 s⁻¹ and the catalytic efficiency (kcat/Km) was determined as 537 M⁻¹ s⁻¹.
